Assay results from patent EP4545563A1, “ANTIBODIES TARGETING ITGA2 AND ANTIBODY-DRUG […]” (Foreseen Technology (Beijing) Co., Ltd., priority 2022, dated 2024).

Molecular target: ITGA2 protein on the surface of human tumor cells (HuCCT1, A431) (human) (UniProt P17301)
Test: cell-based or functional assay

ITGA2 protein on the surface of human tumor cells (HuCCT1, A431) (human), sequence (P17301 30-1181): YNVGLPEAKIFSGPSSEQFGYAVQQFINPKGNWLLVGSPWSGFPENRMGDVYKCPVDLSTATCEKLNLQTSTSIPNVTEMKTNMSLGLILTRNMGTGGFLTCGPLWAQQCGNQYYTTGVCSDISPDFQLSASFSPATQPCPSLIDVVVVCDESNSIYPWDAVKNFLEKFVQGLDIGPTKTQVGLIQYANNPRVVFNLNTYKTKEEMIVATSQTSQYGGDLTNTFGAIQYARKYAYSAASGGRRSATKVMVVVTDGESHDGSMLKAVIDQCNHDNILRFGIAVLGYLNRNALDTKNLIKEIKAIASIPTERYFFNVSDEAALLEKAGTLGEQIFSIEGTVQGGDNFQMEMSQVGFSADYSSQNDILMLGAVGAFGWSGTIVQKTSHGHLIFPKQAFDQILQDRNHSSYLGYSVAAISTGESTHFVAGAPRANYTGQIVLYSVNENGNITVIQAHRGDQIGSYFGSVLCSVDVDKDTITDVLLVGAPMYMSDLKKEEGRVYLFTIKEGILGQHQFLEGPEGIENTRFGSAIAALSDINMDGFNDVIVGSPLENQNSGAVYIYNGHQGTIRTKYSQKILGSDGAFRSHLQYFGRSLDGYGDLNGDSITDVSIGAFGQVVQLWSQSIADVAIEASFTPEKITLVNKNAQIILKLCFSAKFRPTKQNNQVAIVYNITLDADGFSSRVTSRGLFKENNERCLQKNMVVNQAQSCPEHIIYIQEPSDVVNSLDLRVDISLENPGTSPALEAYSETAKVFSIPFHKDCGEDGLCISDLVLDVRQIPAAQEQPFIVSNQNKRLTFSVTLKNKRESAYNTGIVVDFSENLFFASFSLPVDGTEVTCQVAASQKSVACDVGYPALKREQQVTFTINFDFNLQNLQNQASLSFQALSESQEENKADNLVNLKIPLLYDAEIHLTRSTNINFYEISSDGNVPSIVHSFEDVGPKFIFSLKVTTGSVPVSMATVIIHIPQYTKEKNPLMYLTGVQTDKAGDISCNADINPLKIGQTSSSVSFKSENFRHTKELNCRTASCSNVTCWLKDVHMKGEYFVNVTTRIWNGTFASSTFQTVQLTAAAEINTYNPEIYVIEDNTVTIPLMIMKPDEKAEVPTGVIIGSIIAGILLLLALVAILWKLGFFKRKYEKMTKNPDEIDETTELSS

With Vatelizumab-ve-MMAE (antibody) the A431 cell killing IC50 was 0.08 nM and the HuCC-T1 cell killing IC50 was 0.89 nM.
